The text below walks through data of publication PMC8531669, “Quantitative proteomics identifies the universally conserved ATPase Ola1p as a positive regulator of heat shock response in Saccharomyces cerevisiae” (The Journal of Biological Chemistry, 2021).

This data set concerns the molecule itself. Kind of data set: light scattering coupled to nanoDSF; Ola1p (4 μM in Fig. 3G) in 20 mM PIPES pH 7.0, 100 mM KCl, 1 mM TCEP; temperature ramp 0.5 °C/min from 20 °C to 70 °C; read between 38 and 42 °C. (In general: In DSF a fluorescence change marks the thermal transition of the protein.)

B1: Ola1p (natural protein, S. cerevisiae, UniProt P38219 1-394, looked up)
chain: MPPKKQVEEKKVLLGRPGNNLKAGIVGLANVGKSTFFQAITRCPLGNPANYPFATIDPEEARVIVPSPRFDKLCEIYKKTASEVPAHLTVYDIAGLTKGASAGEGLGNAFLSHIRSVDSIYQVVRCFDDAEIIHVEGDVDPVRDLEIINQELRLKDIEFAQKALEGAEKIAKRGGQSLEVKQKKEEMDLITKIIKLLESGQRVANHSWTSKEVEIINSMFLLTAKPCIYLINLSERDYIRKKNKHLLRIKEWVDKYSPGDLIIPFSVSLEERLSHMSPEDAEEELKKLQTISALPKIITTMRQKLDLISFFTCGPDEVREWTIRRGTKAPQAAGVIHNDLMNTFILAQVMKCEDVFEYKDDSAIKAAGKLMQKGKDYVVEDGDIIYFRAGAGKN
notes: Ola1p (Obg-like ATPase 1), S. cerevisiae, systematic name Ybr025c; The methods say that the MBP tag was cleaved with Precision protease; also called Ybr025c; MBP-Ola1p (before cleavage); source: insect cells (baculovirus expression system), purified (amylose resin, size-exclusion chromatography); not shown: MBP, N-terminal, cleaved
Consider B1, for which the binding result was “binds”.
